Measured values taken from CN101300273A.

Assays:
人肿瘤细胞上的TR-2 (human) [1] = molecular target: 人肿瘤细胞上的TR-2 (human) (UniProt O14763); assay: cell-based assay, 10 μg/ml M412, anti-mouse IgG Fc-HRP, isotype control subtracted; liver cancer line NCI-SNU-1
人肿瘤细胞上的TR-2 (human) [2] = molecular target: 人肿瘤细胞上的TR-2 (human) (UniProt O14763); assay: cell-based assay, 10 μg/ml M412, anti-mouse IgG Fc-HRP, isotype control subtracted; breast cancer line MDA-MB-231
人肿瘤细胞上的TR-2 (human) [3] = molecular target: 人肿瘤细胞上的TR-2 (human) (UniProt O14763); assay: cell-based assay, 10 μg/ml M412, anti-mouse IgG Fc-HRP, isotype control subtracted; lung cancer line A549
人肿瘤细胞上的TR-2 (human) [4] = molecular target: 人肿瘤细胞上的TR-2 (human) (UniProt O14763); assay: cell-based assay, 10 μg/ml M412, anti-mouse IgG Fc-HRP, isotype control subtracted; colon cancer line HCT-116
人肿瘤细胞上的TR-2 (human) [5] = molecular target: 人肿瘤细胞上的TR-2 (human) (UniProt O14763); assay: cell-based assay, 10 μg/ml M412, anti-mouse IgG Fc-HRP, isotype control subtracted; non-small cell lung cancer line HOP-62 (second mention)
人肿瘤细胞上的TR-2 (human) [6] = molecular target: 人肿瘤细胞上的TR-2 (human) (UniProt O14763); assay: cell-based assay, 10 μg/ml M412, anti-mouse IgG Fc-HRP, isotype control subtracted; kidney cancer line Caki-2
人肿瘤细胞上的TR-2 (human) [7] = molecular target: 人肿瘤细胞上的TR-2 (human) (UniProt O14763); assay: cell-based assay, 10 μg/ml M412, anti-mouse IgG Fc-HRP, isotype control subtracted; line A 673 (listed under leukemia)
人肿瘤细胞上的TR-2 (human) [8] = molecular target: 人肿瘤细胞上的TR-2 (human) (UniProt O14763); assay: cell-based assay, 10 μg/ml M412, anti-mouse IgG Fc-HRP, isotype control subtracted; melanoma line LOX IMVI
人肿瘤细胞上的TR-2 (human) [9] = molecular target: 人肿瘤细胞上的TR-2 (human) (UniProt O14763); assay: cell-based assay, 10 μg/ml M412, anti-mouse IgG Fc-HRP, isotype control subtracted; kidney cancer line Caki-1
人肿瘤细胞上的TR-2 (human) [10] = molecular target: 人肿瘤细胞上的TR-2 (human) (UniProt O14763); assay: cell-based assay, 10 μg/ml M412, anti-mouse IgG Fc-HRP, isotype control subtracted; colon cancer line HT-29
人肿瘤细胞上的TR-2 (human) [11] = molecular target: 人肿瘤细胞上的TR-2 (human) (UniProt O14763); assay: cell-based assay, 10 μg/ml M412, anti-mouse IgG Fc-HRP, isotype control subtracted; breast cancer line T-47D
人肿瘤细胞上的TR-2 (human) [12] = molecular target: 人肿瘤细胞上的TR-2 (human) (UniProt O14763); assay: cell-based assay, 10 μg/ml M412, anti-mouse IgG Fc-HRP, isotype control subtracted; prostate cancer line 22Rv1
人肿瘤细胞上的TR-2 (human) [13] = molecular target: 人肿瘤细胞上的TR-2 (human) (UniProt O14763); assay: cell-based assay, 10 μg/ml M412, anti-mouse IgG Fc-HRP, isotype control subtracted; colon cancer line SW-948
人肿瘤细胞上的TR-2 (human) [14] = molecular target: 人肿瘤细胞上的TR-2 (human) (UniProt O14763); assay: cell-based assay, 10 μg/ml M412, anti-mouse IgG Fc-HRP, isotype control subtracted; kidney cancer line SN12C
人肿瘤细胞上的TR-2 (human) [15] = molecular target: 人肿瘤细胞上的TR-2 (human) (UniProt O14763); assay: cell-based assay, 10 μg/ml M412, anti-mouse IgG Fc-HRP, isotype control subtracted; melanoma line RPMI 7951
人肿瘤细胞上的TR-2 (human) [16] = molecular target: 人肿瘤细胞上的TR-2 (human) (UniProt O14763); assay: cell-based assay, 10 μg/ml M412, anti-mouse IgG Fc-HRP, isotype control subtracted; melanoma line UACC-62
人肿瘤细胞上的TR-2 (human) [17] = molecular target: 人肿瘤细胞上的TR-2 (human) (UniProt O14763); assay: cell-based assay, 10 μg/ml M412, anti-mouse IgG Fc-HRP, isotype control subtracted; kidney cancer line UO-31
人肿瘤细胞上的TR-2 (human) [18] = molecular target: 人肿瘤细胞上的TR-2 (human) (UniProt O14763); assay: cell-based assay, 10 μg/ml M412, anti-mouse IgG Fc-HRP, isotype control subtracted; colon cancer line HCC-2998
人肿瘤细胞上的TR-2 (human) [19] = molecular target: 人肿瘤细胞上的TR-2 (human) (UniProt O14763); assay: cell-based assay, 10 μg/ml M412, anti-mouse IgG Fc-HRP, isotype control subtracted; CNS cancer line U251
人肿瘤细胞上的TR-2 (human) [20] = molecular target: 人肿瘤细胞上的TR-2 (human) (UniProt O14763); assay: cell-based assay, 10 μg/ml M412, anti-mouse IgG Fc-HRP, isotype control subtracted; prostate cancer line LNCaP
人肿瘤细胞上的TR-2 (human) [21] = molecular target: 人肿瘤细胞上的TR-2 (human) (UniProt O14763); assay: cell-based assay, 10 μg/ml M412, anti-mouse IgG Fc-HRP, isotype control subtracted; ovarian cancer line IGROV1
人肿瘤细胞上的TR-2 (human) [22] = molecular target: 人肿瘤细胞上的TR-2 (human) (UniProt O14763); assay: cell-based assay, 10 μg/ml M412, anti-mouse IgG Fc-HRP, isotype control subtracted; CNS cancer line SF-295
人肿瘤细胞上的TR-2 (human) [23] = molecular target: 人肿瘤细胞上的TR-2 (human) (UniProt O14763); assay: cell-based assay, 10 μg/ml M412, anti-mouse IgG Fc-HRP, isotype control subtracted; prostate cancer line DU 145
人肿瘤细胞上的TR-2 (human) [24] = molecular target: 人肿瘤细胞上的TR-2 (human) (UniProt O14763); assay: cell-based assay, 10 μg/ml M412, anti-mouse IgG Fc-HRP, isotype control subtracted; colon cancer line KM-12
人肿瘤细胞上的TR-2 (human) [25] = molecular target: 人肿瘤细胞上的TR-2 (human) (UniProt O14763); assay: cell-based assay, 10 μg/ml M412, anti-mouse IgG Fc-HRP, isotype control subtracted; non-small cell lung cancer line HOP-62 (first mention)
人肿瘤细胞上的TR-2 (human) [26] = molecular target: 人肿瘤细胞上的TR-2 (human) (UniProt O14763); assay: cell-based or functional assay
人肿瘤细胞上的TR-2 (human) [27] = molecular target: 人肿瘤细胞上的TR-2 (human) (UniProt O14763); assay: cell-based assay, 10 μg/ml M412, anti-mouse IgG Fc-HRP, isotype control subtracted; colon cancer line SW-707
人肿瘤细胞上的TR-2 (human) [28] = molecular target: 人肿瘤细胞上的TR-2 (human) (UniProt O14763); assay: cell-based assay, 10 μg/ml M412, anti-mouse IgG Fc-HRP, isotype control subtracted; non-small cell lung cancer line NCI-H460
人肿瘤细胞上的TR-2 (human) [29] = molecular target: 人肿瘤细胞上的TR-2 (human) (UniProt O14763); assay: cell-based assay, 10 μg/ml M412, anti-mouse IgG Fc-HRP, isotype control subtracted; breast cancer line HS 578.T
人肿瘤细胞上的TR-2 (human) [30] = molecular target: 人肿瘤细胞上的TR-2 (human) (UniProt O14763); assay: cell-based assay, 10 μg/ml M412, anti-mouse IgG Fc-HRP, isotype control subtracted; non-small cell lung cancer line NCI-H2126

UniProt O14763, sequence (O14763 56-440): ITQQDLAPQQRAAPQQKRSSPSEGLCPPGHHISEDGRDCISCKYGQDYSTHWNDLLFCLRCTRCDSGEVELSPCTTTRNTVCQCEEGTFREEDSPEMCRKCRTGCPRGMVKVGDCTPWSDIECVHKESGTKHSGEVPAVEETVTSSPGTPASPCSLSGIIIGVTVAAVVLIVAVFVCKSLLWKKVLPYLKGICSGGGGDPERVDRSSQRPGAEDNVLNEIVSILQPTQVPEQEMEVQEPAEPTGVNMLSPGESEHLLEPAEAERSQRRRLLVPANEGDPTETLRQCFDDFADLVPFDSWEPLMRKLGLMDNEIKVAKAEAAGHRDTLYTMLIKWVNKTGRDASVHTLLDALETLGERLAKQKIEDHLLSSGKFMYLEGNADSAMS

B1: 小鼠抗TR-2抗体M412 (antibody, mouse IgG1, V domains shown)
VH: KVQLQQSGTELVKPGASVKLSCKASGYTFTEYIIHWVKQRSGQGLEWIGWFYPGSGYIKYNEKFKDKATMTADKSSSTVYMELSRLTSEDSAVYFCTRHEEDGYYAAYWGQGTLVTVSA
VL: DIVMTQSHKFMSTSVGDRVSITCKASQDVSSAVAWYQQKPGQSPKLLIYWASTRHTGVPDRFTGSGSGTDYTLTISSVQAEDLALYYCQQHYSTPYTFGGGTKLEIKR
- OD450nm (人肿瘤细胞上的TR-2 (human) [1]): 0.354 OD450
- OD450nm (人肿瘤细胞上的TR-2 (human) [2]): 0.408 OD450
- OD450nm (人肿瘤细胞上的TR-2 (human) [3]): 0.381 OD450
- OD450nm (人肿瘤细胞上的TR-2 (human) [4]): 0.41 OD450
- OD450nm (人肿瘤细胞上的TR-2 (human) [5]): 0.47 OD450
- OD450nm (人肿瘤细胞上的TR-2 (human) [6]): 0.443 OD450
- OD450nm (人肿瘤细胞上的TR-2 (human) [7]): 0.347 OD450
- OD450nm (人肿瘤细胞上的TR-2 (human) [8]): 0.573 OD450
- OD450nm (人肿瘤细胞上的TR-2 (human) [9]): 0.93 OD450
- OD450nm (人肿瘤细胞上的TR-2 (human) [10]): 0.869 OD450
- OD450nm (人肿瘤细胞上的TR-2 (human) [11]): 0.366 OD450
- OD450nm (人肿瘤细胞上的TR-2 (human) [12]): 0.301 OD450
- OD450nm (人肿瘤细胞上的TR-2 (human) [13]): 0.423 OD450
- OD450nm (人肿瘤细胞上的TR-2 (human) [14]): 0.313 OD450
- OD450nm (人肿瘤细胞上的TR-2 (human) [15]): 0.322 OD450
- OD450nm (人肿瘤细胞上的TR-2 (human) [16]): 0.319 OD450
- OD450nm (人肿瘤细胞上的TR-2 (human) [17]): 0.331 OD450
- OD450nm (人肿瘤细胞上的TR-2 (human) [18]): 0.635 OD450
- OD450nm (人肿瘤细胞上的TR-2 (human) [19]): 0.323 OD450
- OD450nm (人肿瘤细胞上的TR-2 (human) [20]): 0.63 OD450
- OD450nm (人肿瘤细胞上的TR-2 (human) [21]): 0.312 OD450
- OD450nm (人肿瘤细胞上的TR-2 (human) [22]): 0.354 OD450
- OD450nm (人肿瘤细胞上的TR-2 (human) [23]): 0.372 OD450
- OD450nm (人肿瘤细胞上的TR-2 (human) [24]): 0.77 OD450
- OD450nm (人肿瘤细胞上的TR-2 (human) [25]): 0.313 OD450
- ED50 (细胞存活减少50%, 3H-胸苷掺入), COLO 205细胞 (人肿瘤细胞上的TR-2 (human) [26]): 1.85 µg/mL
- ED50 (细胞存活减少50%, 3H-胸苷掺入), MDA-231细胞 (人肿瘤细胞上的TR-2 (human) [26]): 0.6 µg/mL
- ED50 (细胞存活减少50%, 3H-胸苷掺入), WM35细胞 (人肿瘤细胞上的TR-2 (human) [26]): 1.85 µg/mL
- ED50 (细胞存活减少50%, 3H-胸苷掺入), WM793细胞 (人肿瘤细胞上的TR-2 (human) [26]): 1.85 µg/mL
- OD450nm (人肿瘤细胞上的TR-2 (human) [27]): 0.323 OD450
- OD450nm (人肿瘤细胞上的TR-2 (human) [28]): 0.326 OD450
- OD450nm (人肿瘤细胞上的TR-2 (human) [29]): 0.403 OD450
- OD450nm (人肿瘤细胞上的TR-2 (human) [30]): 0.501 OD450
